# Measurements as given in patent US20110104143A1 (UAB RESEARCH FOUNDATION, published 2011).
# B1: DDX3ΔCARD (DDX3Δ151-662) (other, human, UniProt O00571 151-662, looked up, not shown: small tags and cut ends)
# chain: FSGGNTGINFEKYDDIPVEATGNNCPPHIESFSDVEMGEIIMGNIELTRYTRPTPVQKHAIPIIKEKRDLMACAQTGSGKTAAFLLPILSQIYSDGPGEALRAMKENGRYGRRKQYPISLVLAPTRELAVQIYEEARKFSYRSRVRPCVVYGGADIGQQIRDLERGCHLLVATPGRLVDMMERGKIGLDFCKYLVLDEADRMLDMGFEPQIRRIVEQDTMPPKGVRHTMMFSATFPKEIQMLARDFLDEYIFLAVGRVGSTSENITQKVVWVEESDKRSFLLDLLNATGKDSLTLVFVETKKGADSLEDFLYHEGYACTSIHGDRSQRDREEALHQFRSGKSPILVATAVAARGLDISNVKHVINFDLPSDIEEYVHRIGRTGRVGNLGLATSFFNERNINITKDLLDLLVEAKQEVPSWLENMAYEHHYKGSSRGRSKSSRFSGGFGARDYRQSSGASSSSFSSSRASSSRSGGGGHGSSRGFGGGGYGGFYNSDGYGGNYNSQGVDWWGN
# notes: also called dominant negative mutant DDX3 lacking amino acids 1-150; truncated DDX3
# B2: DDX3Δ101-662 (other)
# chain: HHHHHHRSDYDGIGSRGDRSGFGKFERGGNSRWCDKSDEDDWSKPLPPSERLEQELFSGGNTGINFEKYDDIPVEATGNNCPPHIESFSDVEMGEIIMGNIELTRYTRPTPVQKHAIPIIKEKRDLMACAQTGSGKTAAFLLPILSQIYSDGPGEALRAMKENGRYGRRKQYPISLVLAPTRELAVQIYEEARKFSYRSRVRPCVVYGGADIGQQIRDLERGCHLLVATPGRLVDMMERGKIGLDFCKYLVLDEADRMLDMGFEPQIRRIVEQDTMPPKGVRHTMMFSATFPKEIQMLARDFLDEYIFLAVGRVGSTSENITQKVVWVEESDKRSFLLDLLNATGKDSLTLVFVETKKGADSLEDFLYHEGYACTSIHGDRSQRDREEALHQFRSGKSPILVATAVAARGLDISNVKHVINFDLPSDIEEYVHRIGRTGRVGNLGLATSFFNERNINITKDLLDLLVEAKQEVPSWLENMAYEHHYKGSSRGRSKSSRFSGGFGARDYRQSSGASSSSFSSSRASSSRSGGGGHGSSRGFGGGGYGGFYNSDGYGGNYNSQGVDWWGN
# notes: also called DDX3 with the first 100 amino acids deleted; DN
# B3: His-tagged DDX3 C-terminal fragment (amino acids 310-662) (other)
# chain: HHHHHHIRDLERGCHLLVATPGRLVDMMERGKIGLDFCKYLVLDEADRMLDMGFEPQIRRIVEQDTMPPKGVRHTMMFSATFPKEIQMLARDFLDEYIFLAVGRVGSTSENITQKVVWVEESDKRSFLLDLLNATGKDSLTLVFVETKKGADSLEDFLYHEGYACTSIHGDRSQRDREEALHQFRSGKSPILVATAVAARGLDISNVKHVINFDLPSDIEEYVHRIGRTGRVGNLGLATSFFNERNINITKDLLDLLVEAKQEVPSWLENMAYEHHYKGSSRGRSKSSRFSGGFGARDYRQSSGASSSSFSSSRASSSRSGGGGHGSSRGFGGGGYGGFYNSDGYGGNYNSQGVDWWGN
# notes: also called C-terminal deletion mutant
# B4: TRA-8 (anti-human DR5 monoclonal antibody) (antibody, V domains shown)
# VH: EVMLVESGGGLVKPGGSLKLSCAASGFTFSSYVMSWVRQTPEKRLEWVATISSGGSYTYYPDSVKGRFTISRDNAKNTLYLQMSSLRSEDTAMYYCARRGDSMITTDYWGQGTTLTVSS
# VL: DIVMTQSHKFMSTSVGDRVSITCKASQDVGTAVAWYQQKPGQSPKLLIYWASTRHTGVPDRFTGSGSGTDFTLTISNVQSEDLADYFCQQYSSYRTFGGGTKLEIKR
# B5: DDX3Δ1-350 (other, human, UniProt O00571 1-350, looked up, not shown: small tags and cut ends)
# chain: MSHVAVENALGLDQQFAGLDLNSSDNQSGGSTASKGRYIPPHLRNREATKGFYDKDSSGWSSSKDKDAYSSFGSRSDSRGKSSFFSDRGSGSRGRFDDRGRSDYDGIGSRGDRSGFGKFERGGNSRWCDKSDEDDWSKPLPPSERLEQELFSGGNTGINFEKYDDIPVEATGNNCPPHIESFSDVEMGEIIMGNIELTRYTRPTPVQKHAIPIIKEKRDLMACAQTGSGKTAAFLLPILSQIYSDGPGEALRAMKENGRYGRRKQYPISLVLAPTRELAVQIYEEARKFSYRSRVRPCVVYGGADIGQQIRDLERGCHLLVATPGRLVDMMERGKIGLDFCKYLVLDEAD
# notes: range 1-350; Name read as the residues kept; also called C-terminal deleted DDX3
# Experiments:
# cIAP1 [1] = target: T1, cIAP1 (human, UniProt Q13490 1-618, limits assumed); assay: DR5 co-IP and Western blot with anti-DDX3 and anti-cIAP1 antibody
# T1 construct: also called DR5-associated cIAP1; purified cIAP1
# T1 sequence (Q13490 whole entry): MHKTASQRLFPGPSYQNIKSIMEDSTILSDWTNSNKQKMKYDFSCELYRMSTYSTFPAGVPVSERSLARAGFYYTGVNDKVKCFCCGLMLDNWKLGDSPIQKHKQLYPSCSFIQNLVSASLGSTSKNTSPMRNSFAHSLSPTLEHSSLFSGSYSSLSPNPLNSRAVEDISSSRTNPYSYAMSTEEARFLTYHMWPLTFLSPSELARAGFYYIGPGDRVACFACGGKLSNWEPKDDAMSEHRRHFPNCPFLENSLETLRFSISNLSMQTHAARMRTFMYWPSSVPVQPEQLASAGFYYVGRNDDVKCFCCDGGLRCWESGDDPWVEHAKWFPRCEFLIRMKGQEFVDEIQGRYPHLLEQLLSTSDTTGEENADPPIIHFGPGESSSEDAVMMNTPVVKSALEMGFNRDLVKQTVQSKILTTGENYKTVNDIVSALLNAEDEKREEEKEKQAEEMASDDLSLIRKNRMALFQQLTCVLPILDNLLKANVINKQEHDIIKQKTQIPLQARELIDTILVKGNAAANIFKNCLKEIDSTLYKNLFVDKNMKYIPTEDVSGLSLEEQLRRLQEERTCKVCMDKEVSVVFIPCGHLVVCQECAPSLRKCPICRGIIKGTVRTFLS
# cIAP1 [2] = target: T1, cIAP1; assay: co-immunoprecipitation, transfected HEK293A cells
# Protocol: (§1) After 24 hours following transfection, protein expression was determined by Western blot analysis using respective monoclonal antibody. For co-immunoprecipitation analysis, cells were lysed with immunoprecipitation-lysis buffer containing a protease inhibitor cocktail.
# human DR5 (full-length) [3] = target: T2, human DR5 (full-length) (human, UniProt O14763 56-440); assay: co-immunoprecipitation and Western blot with anti-6-His antibody, transfected MDA231 cells
# T2 construct: whole, on cells; Whole receptor on cells (flow cytometry) or in cell lysates (co-immunoprecipitation); also called TRAIL-R2; wild-type DR5
# Protocol: (§2) The composition of the DR5 DISC was determined as follows. […] The DR5 DISC was then precipitated overnight at 4° C. with 30 μl beads. After immunoprecipitation, the beads were washed four times with lysis buffer. The beads were then washed five times with 10 mM Tris buffer and resuspended in loading buffer for SDS-PAGE and immunoblotting analyses.
# human DR5 (full-length) [4] = target: T2, human DR5 (full-length); assay: cell-based or functional assay
# human DR5 (full-length) [5] = target: T2, human DR5 (full-length); assay: cell-based or functional assay; remark: listed apart in the source
# human DR5 (full-length) [6] = target: T2, human DR5 (full-length); assay: co-immunoprecipitation using TRA-8, transfected HEK293A cells
# Protocol: as §1, §2
binder,measurement,setting,value
B1,binding result,cIAP1 [1],no binding
B2,binding result,cIAP1 [2],no binding
B3,binding result,human DR5 (full-length) [3],no binding
B4,"IC50 of TRA-8 cytotoxicity (ATP cell viability), BT-474 cells",human DR5 (full-length) [4],> 1 µg/mL
same,"IC50 of TRA-8 cytotoxicity (ATP cell viability), DY36T2 (MDA-MB-361 subclone) cells",human DR5 (full-length) [4],> 1 µg/mL
same,"IC50 of TRA-8 cytotoxicity (ATP cell viability), MCF-7 cells",human DR5 (full-length) [4],> 1 µg/mL
same,"IC50 of TRA-8 cytotoxicity (ATP cell viability), MDA-MB-134 cells",human DR5 (full-length) [4],> 1 µg/mL
same,"IC50 of TRA-8 cytotoxicity (ATP cell viability), MDA-MB-453 cells",human DR5 (full-length) [4],> 1 µg/mL
same,"IC50 of TRA-8 cytotoxicity (ATP cell viability), SK-BR-3 cells",human DR5 (full-length) [4],> 1 µg/mL
same,"IC50 of TRA-8 cytotoxicity (ATP cell viability), T-47D cells",human DR5 (full-length) [4],> 1 µg/mL
same,"IC50 of TRA-8 cytotoxicity (ATP cell viability), ZR-75-1 cells",human DR5 (full-length) [4],0.683 µg/mL
same,"IC50 of TRA-8 cytotoxicity (ATP cell viability), ZR-75-30 cells",human DR5 (full-length) [4],> 1 µg/mL
same,"IC50 of TRA-8 cytotoxicity (ATP cell viability), 2LMP cells",human DR5 (full-length) [5],0.0011 µg/mL
same,"IC50 of TRA-8 cytotoxicity (ATP cell viability), BT-20 cells",human DR5 (full-length) [5],0.048 µg/mL
same,"IC50 of TRA-8 cytotoxicity (ATP cell viability), BT-549 cells",human DR5 (full-length) [5],0.018 µg/mL
same,"IC50 of TRA-8 cytotoxicity (ATP cell viability), HCC38 cells",human DR5 (full-length) [5],0.0009 µg/mL
same,"IC50 of TRA-8 cytotoxicity (ATP cell viability), HCC1143 cells",human DR5 (full-length) [5],> 1 µg/mL
same,"IC50 of TRA-8 cytotoxicity (ATP cell viability), HCC1187 cells",human DR5 (full-length) [5],0.024 µg/mL
same,"IC50 of TRA-8 cytotoxicity (ATP cell viability), HCC1599 cells",human DR5 (full-length) [5],> 1 µg/mL
same,"IC50 of TRA-8 cytotoxicity (ATP cell viability), HCC1937 cells",human DR5 (full-length) [5],> 1 µg/mL
same,"IC50 of TRA-8 cytotoxicity (ATP cell viability), MDA-MB-152 cells",human DR5 (full-length) [5],0.012 µg/mL
same,"IC50 of TRA-8 cytotoxicity (ATP cell viability), MDA-MB-231 cells",human DR5 (full-length) [5],0.018 µg/mL
same,"IC50 of TRA-8 cytotoxicity (ATP cell viability), MDA-MB-436 cells",human DR5 (full-length) [5],0.0032 µg/mL
same,"IC50 of TRA-8 cytotoxicity (ATP cell viability), MDA-MB-468 cells",human DR5 (full-length) [5],0.017 µg/mL
same,"IC50 of TRA-8 cytotoxicity (ATP cell viability), SUM102 cells",human DR5 (full-length) [5],0.0045 µg/mL
same,"IC50 of TRA-8 cytotoxicity (ATP cell viability), SUM149 cells",human DR5 (full-length) [5],0.0009 µg/mL
same,"IC50 of TRA-8 cytotoxicity (ATP cell viability), SUM159 cells",human DR5 (full-length) [5],0.0019 µg/mL
B5,binding result,human DR5 (full-length) [6],no binding
